Assay results reported in publication PMC4641746 (Cell, 2015).

Key:
[1] = molecular target: Y46K/V66D mutant of WT BanLec (recombinant, His-tagged) (Musa acuminata); test: 15N NMR spin relaxation
[2] = molecular target: T1, BanLec (banana lectin), recombinant His-tagged WT (Musa acuminata, UniProt O22321, H84T); test: isothermal titration calorimetry; format: binding; details: dimannoside linkage not printed in main text
T1 sequence (O22321 1-141 H84T): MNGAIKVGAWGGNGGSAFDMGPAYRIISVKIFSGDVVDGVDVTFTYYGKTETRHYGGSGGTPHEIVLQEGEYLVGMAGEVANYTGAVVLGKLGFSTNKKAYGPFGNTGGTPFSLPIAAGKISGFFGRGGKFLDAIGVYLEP

[3] = molecular target: Y46K/V66D mutant of H84T BanLec (recombinant, His-tagged) (Musa acuminata); test: 15N NMR spin relaxation

## Y46K/V66D mutant of WT BanLec (recombinant, His-tagged) (natural protein)
[1]
  stoichiometry N: 2

## dimannoside [M2]
[2]
  Ka: 227

## Y46K/V66D mutant of H84T BanLec (recombinant, His-tagged) (natural protein)
[3]
  stoichiometry N: 2
